Key:
[1] = frontal affinity chromatography (FAC), association constant to PA sugar chains having other L-fucose; format: binding; settings: 25 degrees C.
Procedure, shortened: (§1)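 Lectin coupled via primary amines to NHS-activated sepharose in a miniature column, run in TBS (pH 7.4) at 0.125 ml/min and 25 degrees C. PA sugar chains (3.75 nM or 7.5 nM) applied in excess, with elution monitored by fluorescence (ex 310/em 380 nm). Ka calculated from front-end delay (V−Vo) versus PA rhamnose and effective ligand amount (Bt).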

[2] = frontal affinity chromatography (FAC), association constant to PA sugar chains without L-fucose; format: binding; settings: 25 degrees C.
Procedure, shortened: as §1

B1: Aleuria aurantia lectin (protein)
chain: PTEFLYTSKIAAISWAATGGRQQRVYFQDLNGKIREAQRGGDNPWTGGSSQNVIGEAKLFSPLAAVTWKSAQGIQIRVYCVNKDNILSEFVYDGSKWITGQLGSVGVKVGSNSKLAALQWGGSESAPPNIRVYYQKSNGSGSSIHEYVWSGKWTAGASFGSTVPGTGIGATAIGPGRLRIYYQATDNKIREHCWDSNSWYVGGFSASASAGVSIAAISWGSTPNIRVYWQKGREELYEAAYGGSWNTPGQIKDASRPTPSLPDTFIAANSSGNIDISVFFQASGVSLQQWQWISGKGWSIGAVVPTGTPAGW
association constant Ka ([1]; Sugar chain No. 419): <1000 M⁻¹
association constant Ka ([1]; Sugar chain No. 420): <1000 M⁻¹
association constant Ka ([1]; Sugar chain No. 718): 65000 M⁻¹
association constant Ka ([1]; Sugar chain No. 719): <1000 M⁻¹
association constant Ka ([1]; Sugar chain No. 720): <1000 M⁻¹
association constant Ka ([1]; Sugar chain No. 721): <1000 M⁻¹
association constant Ka ([1]; Sugar chain No. 722): <1000 M⁻¹
association constant Ka ([1]; Sugar chain No. 723): 35000 M⁻¹
association constant Ka ([1]; Sugar chain No. 726): <1000 M⁻¹
association constant Ka ([1]; Sugar chain No. 727): 130000 M⁻¹
association constant Ka ([1]; Sugar chain No. 728 (as listed in Table 5/12)): <1000 M⁻¹
association constant Ka ([1]; Sugar chain No. 729): <1000 M⁻¹
association constant Ka ([1]; Sugar chain No. 730): <1000 M⁻¹
association constant Ka ([1]; Sugar chain No. 731): <1000 M⁻¹
association constant Ka ([1]; Sugar chain No. 739): <1000 M⁻¹
association constant Ka ([1]; Sugar chain No. 909): 310000 M⁻¹
association constant Ka ([1]; Sugar chain No. 910): 90000 M⁻¹
association constant Ka ([1]; Sugar chain No. 931): <1000 M⁻¹
association constant Ka ([1]; Sugar chain No. 932): <1000 M⁻¹
association constant Ka ([1]; Sugar chain No. 933): 210000 M⁻¹
association constant Ka ([2]; Sugar chain No. 001): <1000 M⁻¹
association constant Ka ([2]; Sugar chain No. 002): <1000 M⁻¹
association constant Ka ([2]; Sugar chain No. 003): <1000 M⁻¹
association constant Ka ([2]; Sugar chain No. 004): <1000 M⁻¹
association constant Ka ([2]; Sugar chain No. 005): <1000 M⁻¹
association constant Ka ([2]; Sugar chain No. 006): <1000 M⁻¹
association constant Ka ([2]; Sugar chain No. 007): <1000 M⁻¹
association constant Ka ([2]; Sugar chain No. 008): <1000 M⁻¹
association constant Ka ([2]; Sugar chain No. 009): <1000 M⁻¹
association constant Ka ([2]; Sugar chain No. 010): <1000 M⁻¹
association constant Ka ([2]; Sugar chain No. 011): <1000 M⁻¹
association constant Ka ([2]; Sugar chain No. 012): <1000 M⁻¹
association constant Ka ([2]; Sugar chain No. 013): <1000 M⁻¹
association constant Ka ([2]; Sugar chain No. 014): <1000 M⁻¹
association constant Ka ([2]; Sugar chain No. 101): <1000 M⁻¹
association constant Ka ([2]; Sugar chain No. 103): <1000 M⁻¹
association constant Ka ([2]; Sugar chain No. 104): <1000 M⁻¹
association constant Ka ([2]; Sugar chain No. 105): <1000 M⁻¹
association constant Ka ([2]; Sugar chain No. 107): <1000 M⁻¹
association constant Ka ([2]; Sugar chain No. 108): <1000 M⁻¹
association constant Ka ([2]; Sugar chain No. 301): <1000 M⁻¹
association constant Ka ([2]; Sugar chain No. 304): <1000 M⁻¹
association constant Ka ([2]; Sugar chain No. 305): <1000 M⁻¹
association constant Ka ([2]; Sugar chain No. 307): <1000 M⁻¹
association constant Ka ([2]; Sugar chain No. 308): <1000 M⁻¹
association constant Ka ([2]; Sugar chain No. 313): <1000 M⁻¹
association constant Ka ([2]; Sugar chain No. 314): <1000 M⁻¹
association constant Ka ([2]; Sugar chain No. 323): <1000 M⁻¹
association constant Ka ([2]; Sugar chain No. 501): <1000 M⁻¹
association constant Ka ([2]; Sugar chain No. 502): <1000 M⁻¹
association constant Ka ([2]; Sugar chain No. 503): <1000 M⁻¹
association constant Ka ([2]; Sugar chain No. 504): <1000 M⁻¹
association constant Ka ([2]; Sugar chain No. 701): <1000 M⁻¹
association constant Ka ([2]; Sugar chain No. 702): <1000 M⁻¹
association constant Ka ([2]; Sugar chain No. 703): <1000 M⁻¹
association constant Ka ([2]; Sugar chain No. 704): <1000 M⁻¹
association constant Ka ([2]; Sugar chain No. 705): <1000 M⁻¹
association constant Ka ([2]; Sugar chain No. 706): <1000 M⁻¹
association constant Ka ([2]; Sugar chain No. 707): <1000 M⁻¹
association constant Ka ([2]; Sugar chain No. 708): <1000 M⁻¹
association constant Ka ([2]; Sugar chain No. 709): <1000 M⁻¹
association constant Ka ([2]; Sugar chain No. 710): <1000 M⁻¹
association constant Ka ([2]; Sugar chain No. 711): <1000 M⁻¹
association constant Ka ([2]; Sugar chain No. 712): <1000 M⁻¹
association constant Ka ([2]; Sugar chain No. 713): <1000 M⁻¹
association constant Ka ([2]; Sugar chain No. 715): <1000 M⁻¹
association constant Ka ([2]; Sugar chain No. 716): <1000 M⁻¹
association constant Ka ([2]; Sugar chain No. 717): <1000 M⁻¹
association constant Ka ([2]; Sugar chain No. 724): <1000 M⁻¹
association constant Ka ([2]; Sugar chain No. 725): <1000 M⁻¹
association constant Ka ([2]; Sugar chain No. 728 (as listed in Table 7)): <1000 M⁻¹
association constant Ka ([2]; Sugar chain No. 732): <1000 M⁻¹
association constant Ka ([2]; Sugar chain No. 733): <1000 M⁻¹
association constant Ka ([2]; Sugar chain No. 734): <1000 M⁻¹
association constant Ka ([2]; Sugar chain No. 735): <1000 M⁻¹
association constant Ka ([2]; Sugar chain No. 736): <1000 M⁻¹
association constant Ka ([2]; Sugar chain No. 737): <1000 M⁻¹
association constant Ka ([2]; Sugar chain No. 738): <1000 M⁻¹
association constant Ka ([2]; Sugar chain No. 901): <1000 M⁻¹
association constant Ka ([2]; Sugar chain No. 902): <1000 M⁻¹
association constant Ka ([2]; Sugar chain No. 903): <1000 M⁻¹
association constant Ka ([2]; Sugar chain No. 905): <1000 M⁻¹
association constant Ka ([2]; Sugar chain No. 906): <1000 M⁻¹
association constant Ka ([2]; Sugar chain No. 907): <1000 M⁻¹

Reference: patent publication US8461305B2, “L-fucose α1→6 specific lectin” (J-Oil Mills, Inc., priority 2008, dated 2013)
